Test results taken from paper PMC9507964, “Structure of CRL7^FBXW8 reveals coupling with CUL1–RBX1/ROC1 for multi-cullin-RING E3-catalyzed ubiquitin ligation” (Nature Structural & Molecular Biology, 2022).

How the values were obtained:
[1] = biological target: T1, CUL1–RBX1 (full-length CUL1) (human, UniProt Q13616 1-776; P62877 5-108); assay: SEC; comigration; proteins mixed at equimolar 1.5 μM for at least 10 min on ice; Superose 6 5/150GL; 50 mM Tris pH 7.5, 150 mM NaCl, 1 mM DTT; fractions on Coomassie-stained SDS–PAGE; conditions: both partners purified
T1 construct: CUL1, human, full length; RBX1, human, residue 5 to C terminus; Unneddylated form used in the SEC experiments; also called full-length CUL1–RBX1; not shown: GST, N-terminal, cleaved

FBXW8 = biological target: T2, FBXW8 (human, UniProt Q8N3Y1 1-598); assay: cryo-EM structure; purified CRL7^FBXW8 and CUL1 N-terminal region mixed 15 min before plunging, on ice; Glacios 200 kV; conditions: both partners purified
T2 construct: FBXW8, human, full length; source: HEK293S, co-expressed (BacMam), purified within CRL7^FBXW8; not shown: GFP, N-terminal, cleaved
T2 sequence (looked up): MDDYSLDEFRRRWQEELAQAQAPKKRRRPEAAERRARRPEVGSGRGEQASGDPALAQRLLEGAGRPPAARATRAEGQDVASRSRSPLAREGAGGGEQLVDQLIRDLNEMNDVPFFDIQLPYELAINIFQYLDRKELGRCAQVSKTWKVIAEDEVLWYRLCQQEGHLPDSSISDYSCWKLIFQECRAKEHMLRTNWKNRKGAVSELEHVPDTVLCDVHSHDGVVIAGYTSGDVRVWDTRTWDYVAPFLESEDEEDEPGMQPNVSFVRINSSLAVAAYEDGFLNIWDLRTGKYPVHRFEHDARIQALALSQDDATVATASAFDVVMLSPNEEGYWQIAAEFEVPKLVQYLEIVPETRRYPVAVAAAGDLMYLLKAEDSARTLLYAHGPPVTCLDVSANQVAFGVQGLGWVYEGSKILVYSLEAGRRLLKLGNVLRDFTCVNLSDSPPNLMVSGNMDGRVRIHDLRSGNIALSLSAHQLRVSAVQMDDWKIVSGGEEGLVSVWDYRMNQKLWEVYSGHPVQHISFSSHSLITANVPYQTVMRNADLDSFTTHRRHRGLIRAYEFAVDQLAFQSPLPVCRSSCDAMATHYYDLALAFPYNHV

B1: SKP1^ΔΔ–β-TRCP1 (monomeric form) complex (complex, human)
chain 1: MLQRDFITALPARGLDHIAENILSYLDAKSLCAAELVCKEWYRVTSDGMLWKKLIERMVRTDSLWRGLAERRGWGQYLFKNKPPDGNAPPNSFYRALYPKIIQDIETIESNWRCGRHSLQRIHCRSETSKGVYCLQYDDQKIVSGLRDNTIKIWDKNTLECKRILTGHTGSVLCLQYDERVIITGSSDSTVRVWDVNTGEMLNTLIHHCEAVLHLRFNNGMMVTCSKDRSIAVWDMASPTDITLRRVLVGHRAAVNVVDFDDKYIVSASGDRTIKVWNTSTCEFVRTLNGHKRGIACLQYRDRLVVSGSSDNTIRLWDIECGACLRVLEGHEELVRCIRFDNKRIVSGAYDGKIKVWDLVAALDPRAPAGTLCLRTLVEHSGRVFRLQFDEFQIVSSSHDDTILIWDFLNDPAAQAEPPRSPSRTYTYISR
chain 2: MPSIKLQSSDGEIFEVDVEIAKQSVTIKTMLEDLGMDPVPLPNVNAAILKKVIQWCTHHKDDPPDDIPVWDQEFLKVDQGTLFELILAANYLDIKGLLDVTCKTVANMIKGKTPEEIRKTFNIKNDFTEEEEAQVRKENQWCEEK
notes: β-TRCP1, human, monomeric form, from residue 175 to C terminus; also called SKP1-β-TRCP1; SKP-β-TRCP1; not shown: His-MBP, N-terminal, cleaved
[1]
  binding result: binds

B2: CUL1 N-terminal region (residues 1–410) (domain or fragment)
chain: not shown
notes: CUL1, human, residues 1 to 410 encompassing the CR1, CR2 and CR3 domains; Expressed as a GST-thrombin or GST-TEV fusion; also called CUL1^NTD; N-terminal region of CUL1 (CR1, CR2 and CR3 domains)
FBXW8
  binding result: binds
